In US20220204610A1, “PROTEIN BINDERS FOR IRHOM2” (NEW YORK SOCIETY FOR THE RELIEF OF THE RUPTURED AND …, priority 2019, published 2022):

System: human iRhom1
Assay: Peptide binding ELISA, binding specificity (Example 10), iRhom1 peptides
Settings: antibody 3 μg/ml PBS; peptides coated at 10 μg/ml; normalized to IgM isotype control
Experimental: Another series of peptide binding ELISA experiments was conducted to address the specificity of the purified antibody 4H8-E3 of the invention, i.e. to question whether this antibody specifically recognizes peptides, in particular peptide 3, resembling the extracellular juxtamembrane region adjacent to the TMD1 of human iRhom2, or whether the antibody 4H8-E3 of the invention also binds to peptides reflecting the homologous region of the closely related family member human iRhom1.
In brief, on day 1, Nunc black MaxiSorp® 96-well plates (Thermo Fisher Scientific, USA) were coated overnight with 100 μl per well of single biotinylated peptides 1 to 4, Mix A consisting of peptides 1 to 4, single biotinylated peptides 1b to 4b, and Mix D consisting of peptides 1b to 4b at 10 μg/m1 PBS each (thus, the final concentration of each peptide in both mixes was 2.5 μg/m1) at 4° C. On day 2, peptide solutions were removed and MaxiSorp® plates were blocked with 300 μl per well of Pierce protein-free (TBS) blocking buffer (Thermo Fisher Scientific, USA) at room temperature for 1.5 hours. […] Using an infinite M1000 PRO (Tecan Group, Switzerland) microplate reader, the fluorescence of each well was collected at an excitation wavelength of 435 nm and an emission wavelength of 555 nm.

B1: 4H8-E3: Mouse IgM monoclonal antibody against the human iRhom2 juxtamembrane domain adjacent to TMD1; HC VD SEQ ID NO 33, LC VD SEQ ID NO 40 (antibody, V domains shown)
VH: EVQLQQSGPELVKPGASVKISCKASGYTFTDYYMNWVKQSHGKSLEWIGDINPNNGGTSYNQKFKGKATLTVDKSSNTAYMEFRSLTSEDSAVYYCARRGYYGVDYWGQGTTLTVSS
VL: NIVMTQSPKSMSMSVGERVTLNCKASENVGTYVSWYQQKPEQSPKLLIFGASNRYTGVPDRFIGSGFATDFTLTISSVQAEDLADYHCGQSYSYPYTFGGGTKLEIK
modifications: IgM constant regions; antibody sequence
binding to Mix D or individually coated peptides 1b, 2b, 3b and 4b (homologous sequences of human iRhom1): does not bind at all
